Results on 7 molecules are retold here after patent US20200270125A1 (OMEROS, published 2020).

The labels stand for the following.
T1: human MASP-3 (construct not stated) (human)
T1 construct: also called MASP-3 antigen
T1 chain: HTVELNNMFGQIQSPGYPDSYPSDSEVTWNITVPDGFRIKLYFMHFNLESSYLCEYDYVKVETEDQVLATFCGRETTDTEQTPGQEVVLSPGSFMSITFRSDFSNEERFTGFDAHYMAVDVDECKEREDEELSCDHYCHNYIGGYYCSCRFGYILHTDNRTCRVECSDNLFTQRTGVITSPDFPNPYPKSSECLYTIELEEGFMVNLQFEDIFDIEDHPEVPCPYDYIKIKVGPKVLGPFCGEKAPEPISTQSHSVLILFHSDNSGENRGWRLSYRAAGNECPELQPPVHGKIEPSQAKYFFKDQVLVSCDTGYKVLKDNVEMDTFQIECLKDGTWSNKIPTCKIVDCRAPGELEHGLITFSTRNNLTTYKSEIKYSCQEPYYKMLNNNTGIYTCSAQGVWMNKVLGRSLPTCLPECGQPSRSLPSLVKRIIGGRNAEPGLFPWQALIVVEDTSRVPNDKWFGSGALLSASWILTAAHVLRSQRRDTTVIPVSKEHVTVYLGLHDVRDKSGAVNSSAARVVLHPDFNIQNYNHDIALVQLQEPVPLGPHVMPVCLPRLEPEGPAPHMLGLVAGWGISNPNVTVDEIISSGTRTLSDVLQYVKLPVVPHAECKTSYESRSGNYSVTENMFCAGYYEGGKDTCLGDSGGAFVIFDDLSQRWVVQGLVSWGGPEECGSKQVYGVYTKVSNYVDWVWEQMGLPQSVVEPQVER

T2: recombinant full-length mouse MASP-3 (mouse)
T2 construct: Entry is with leader; also called mouse full length MASP-3
T2 chain: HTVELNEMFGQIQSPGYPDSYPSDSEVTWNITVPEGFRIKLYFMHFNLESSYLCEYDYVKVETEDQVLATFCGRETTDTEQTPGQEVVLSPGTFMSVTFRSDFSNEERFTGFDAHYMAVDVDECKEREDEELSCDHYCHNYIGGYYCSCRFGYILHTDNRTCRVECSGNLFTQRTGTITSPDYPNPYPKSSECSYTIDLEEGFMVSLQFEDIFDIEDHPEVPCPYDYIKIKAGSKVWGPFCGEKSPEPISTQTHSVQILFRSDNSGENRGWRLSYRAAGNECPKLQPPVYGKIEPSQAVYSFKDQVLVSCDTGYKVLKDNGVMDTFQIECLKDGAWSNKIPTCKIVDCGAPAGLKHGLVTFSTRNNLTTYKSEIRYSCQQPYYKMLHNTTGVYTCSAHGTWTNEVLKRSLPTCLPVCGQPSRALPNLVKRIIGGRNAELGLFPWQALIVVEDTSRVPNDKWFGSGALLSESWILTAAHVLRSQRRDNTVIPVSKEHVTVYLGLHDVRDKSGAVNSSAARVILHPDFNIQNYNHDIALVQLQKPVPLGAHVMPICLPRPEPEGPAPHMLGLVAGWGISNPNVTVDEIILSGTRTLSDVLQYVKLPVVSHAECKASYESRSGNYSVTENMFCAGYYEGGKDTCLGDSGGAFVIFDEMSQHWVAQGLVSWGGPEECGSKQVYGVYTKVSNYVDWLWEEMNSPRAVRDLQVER

T3: recombinant human MASP-1A (S646A, CCP1-CCP2-SP fragment) (human, UniProt P48740 298-699, limits assumed)
T3 chain: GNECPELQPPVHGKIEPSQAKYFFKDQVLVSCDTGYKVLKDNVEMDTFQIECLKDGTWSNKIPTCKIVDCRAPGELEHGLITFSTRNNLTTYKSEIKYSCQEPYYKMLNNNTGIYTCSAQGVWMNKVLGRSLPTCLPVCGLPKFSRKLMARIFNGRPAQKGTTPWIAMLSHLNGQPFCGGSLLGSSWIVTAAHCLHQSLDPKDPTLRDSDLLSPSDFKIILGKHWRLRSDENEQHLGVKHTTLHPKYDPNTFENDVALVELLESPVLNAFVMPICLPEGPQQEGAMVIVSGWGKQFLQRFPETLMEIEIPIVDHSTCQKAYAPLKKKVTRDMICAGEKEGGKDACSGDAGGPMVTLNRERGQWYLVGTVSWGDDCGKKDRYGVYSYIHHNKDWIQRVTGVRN

T4: human MASP-3 CCP1-CCP2-SP fragment (human)
T4 chain: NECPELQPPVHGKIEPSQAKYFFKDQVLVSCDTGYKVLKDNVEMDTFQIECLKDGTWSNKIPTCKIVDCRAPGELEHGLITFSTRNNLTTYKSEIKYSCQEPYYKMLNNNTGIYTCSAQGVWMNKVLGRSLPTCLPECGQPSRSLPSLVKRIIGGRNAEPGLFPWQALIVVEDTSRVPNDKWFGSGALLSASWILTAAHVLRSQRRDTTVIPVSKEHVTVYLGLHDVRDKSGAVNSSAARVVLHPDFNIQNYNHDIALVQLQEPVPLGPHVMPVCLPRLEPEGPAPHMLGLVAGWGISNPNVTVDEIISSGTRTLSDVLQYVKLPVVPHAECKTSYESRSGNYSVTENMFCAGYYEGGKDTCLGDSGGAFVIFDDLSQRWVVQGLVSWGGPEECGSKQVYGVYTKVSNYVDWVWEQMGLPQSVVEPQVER

B1: h10D12_45-21 Fab (VH-45 and VL-21) (Fab, V domains shown)
VH: QIQLVQSGSELKKPGASVKVSCKASGYIFTSYGMSWVRQAPGKGLKWMGWINTYSGVPTYADDFKGRFVFSLDTSVRTPYLQISSLKAEDTAVYFCARGGEAMDYWGQGTLVTVSS
VL: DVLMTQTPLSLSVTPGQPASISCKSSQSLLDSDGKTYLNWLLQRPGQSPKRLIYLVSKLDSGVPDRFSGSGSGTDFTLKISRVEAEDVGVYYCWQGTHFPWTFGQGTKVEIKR
notes: Humanized monovalent Fab; also called h10D12_45-21 parental Fab
B2: h4D5_19-1 Fab (VH-19 and VL-1) (Fab, V domains shown)
VH: QVQLVQSGAEVKKPGASVKVSCKASGYTFTTDDINWVRQAPGQGLEWIGWIYPRDDRTKYNDKFKDRATLTVDTSSNTAYMELSSLRSEDTAVYYCSSLEDTYWGQGTLVTVSS
VL: DIVMTQSPDSLAVSLGERATINCKSSQSLLNSRTRKNYLAWYQQKPGQPPKLLIYWASTRESGVPDRFSGSGSGTDFTLTISSLQAEDVAVYYCKQSYNLYTFGQGTKVEIKR
notes: Humanized monovalent Fab; also called h4D5_19-1 parental Fab
B3: h13B1_10-1 Fab (VH-10 and VL-1) (Fab, V domains shown)
VH: QVQLVQSGAEVKKPGASVKVSCKASGYTFTGKWIEWVRQAPGQGLEWIGEILPGTGSTNYNEKFKGRATFTADSSTSTAYMELSSLRSEDTAVYYCLRSEDVWGQGTLVTVSS
VL: B2 VL with L100I, Y101P
notes: Humanized monovalent Fab; also called h13B1_10-1 parental Fab
B4: MASP-3 mAb 1A10 (mouse-human chimeric IgG4) (antibody, V domains shown)
VH: QVQLKQSGPELVKPGASVKLSCKASGYTFTSNDINWVKQRPGQGLEWIGWIYPRDGTTKYNEKFTDKATLTVDVSSSTAFMELHRLTSEDSAVYFCSSVEDSYWGQGTLVTVSS
VL: DIVMTQSPSSLAVSAGEKVTMSCKSSQSLLISRTRKNYLSWYQQKPGQSPKLLIYWASTRESGVPDRFTGSGSGTDFTLTISSVQAEDLAVYYCKQSYNLYTFGGGTKLEIKR
notes: The light chain of 1A10 was not identified
B5: MASP-3 mAb 2F5 (mouse-human chimeric IgG4) (antibody, V domains shown)
VH: EVQLQQPGAELVKPGASVKMSCKASGYTFTSYWITWVKQRPGQGLEWIGDIYPGSGSTNYNEKFKSKATLTVDTSSSTAYMQLSSLTSEDSAVYYCARRRYYATAWFAYWGQGTLVTVSS
VL: DIVMTQSQKFMSTSVGDRVSITCKASQNVGTAVAWYQQKPGQSPKLLISSASNRYTGVPDRFTGSGSGTDFTLTISNMQSEDVADYFCQQYNSYPLTFGAGTKLELKR
B6: MASP-3 mAb 2F2 (mouse-human chimeric IgG4) (antibody, V domains shown)
VH: QVQLKQSGAELVTPGASVKMSCKASGYTFTTYPIEWMKQNHGKSLEWIGNFHPYNDDTKYNEKFKGKATLTVEKSSNTVYLELSRLTSDDSAVYFCARRVYYSYFWFGYWGHGTLVTVSS
VL: DIVMTQSQKFMSTSVGDRVNVTCKASQNVGTHVAWYQQKPGQSPKALIYSASYRYSGVPDRFTGSGSGTDFTLTISNVQSEDLAEYFCQQYNSYPRALTFGAGTKLELKR
B7: MASP-3 mAb 2D7 (mouse-human chimeric IgG4) (antibody, V domains shown)
VH: EVQLQQSGPELVKPGASVKVSCKASGYTLTDYYMNWVKQSHGKSLEWIGDVNPNNDGTTYNQKFKGRATLTVDKSSNTASMELRSLTSEDSAVYYCAICPFYYLGKGTHFDYWGQGTSLTVSS
VL: DIQMTQTPASLSASLGDRVTISCRASQDISNFLNWYQQKPNGTVKLLVFYTSRLHSGVPSRFSGSGSGAEHSLTISNLEQEDVATYFCQQGFTLPWTFGGGTKVEIKR

Numbering of substitutions follows the chain as printed.

The target of one test is T1, human MASP-3 (construct not stated). Briefly: ELISA, monovalent Fab.
As for B1, it took 0.108 nM to reach a half-maximal effect (EC50).
Same read-out and setting: the value for B2 was 0.079 nM; that for B3 was 0.097 nM.

Another test has as its target T2, recombinant full-length mouse MASP-3. Put plainly: sandwich ELISA, full-length mouse MASP-3 captured by αM3-259. As to the method:
(§1) The plate was then washed (PBS-T, 0.05%) and the candidate MASP-3 antibodies were added followed by incubation for one hour at room temperature. The plate was washed (PBS-T, 0.05%) and a detection antibody was added (mouse anti-human kappa-HRP, SouthernBiotech #9230-05) for one hour at room temperature. After another wash (PBS-T, 0.05%) the plate was developed (5 minutes) with OPT EIA TMB (BD Biosciences #555214). Absorbance reading at A450 was measured using the Spectramax M5e plate reader.
On the technique in general: An ELISA detects its analyte on a solid surface through an enzyme-linked reagent.
B4: the EC50 was 0.15 nM.
Same read-out and setting: in the case of B5 it was 0.102 nM; in that of B6, 0.105 nM.

The next test deals with T1, human MASP-3 (construct not stated). Put plainly: ELISA, monovalent Fab. The source holds these as a separate data set.
On to B1, for which a half-maximal response (EC50) required 0.108 nM.
In turn, B2 came in with an EC50 of 0.102 nM.
In turn, B3 registered an EC50 of 0.1 nM.

The target in another test is T3, recombinant human MASP-1A (S646A, …). Briefly: ELISA: recombinant MASP-1A (S646A, CCP1-CCP2-SP) coated directly on the plate, A450. As for the experimental part:
as §1
As to B4, the binding result was “no binding (tested: about 20 nM (log10 about 1.3))”.
Still for that read-out and setting: the value for B5 was “no binding (tested: about 20 nM (log10 about 1.3))”; that for B6 was “no binding (tested: about 20 nM (log10 about 1.3))”.
The same measure, in the same setting: the value for B7 was “no binding (tested: about 20 nM (log10 about 1.3))”.

For a further test, the target named is T1, human MASP-3 (construct not stated). Put plainly: cell-based or functional assay.
As to B4, the “Inhibition of Rabbit Erythrocyte Lysis (IC50 nM), 10% factor D-depleted human serum” value came to 0.2 nM.
On to B5, for which the “Inhibition of Rabbit Erythrocyte Lysis (IC50 nM), 10% factor D-depleted human serum” value came to 0.9 nM.
On the same count and under the same terms, the value for B6 was 0.8 nM; that for B7 was 5.4 nM.

The target is the same in a further test. Briefly: not described at this place.
As for B4, the binding affinity is no more than 500 pM.
Molecule B5 gave a binding affinity of no more than 500 pM.
Same read-out and setting: the value for B6 was no more than 500 pM; that for B7 was no more than 500 pM.

The next test deals with T5, recombinant human MASP-2 (CCP1-CCP2-SP fragment) (human, UniProt O00187 298-686, limits assumed).
T5 construct: domain: CCP1-CCP2-SP fragment
T5 sequence (O00187 298-686 limits assumed): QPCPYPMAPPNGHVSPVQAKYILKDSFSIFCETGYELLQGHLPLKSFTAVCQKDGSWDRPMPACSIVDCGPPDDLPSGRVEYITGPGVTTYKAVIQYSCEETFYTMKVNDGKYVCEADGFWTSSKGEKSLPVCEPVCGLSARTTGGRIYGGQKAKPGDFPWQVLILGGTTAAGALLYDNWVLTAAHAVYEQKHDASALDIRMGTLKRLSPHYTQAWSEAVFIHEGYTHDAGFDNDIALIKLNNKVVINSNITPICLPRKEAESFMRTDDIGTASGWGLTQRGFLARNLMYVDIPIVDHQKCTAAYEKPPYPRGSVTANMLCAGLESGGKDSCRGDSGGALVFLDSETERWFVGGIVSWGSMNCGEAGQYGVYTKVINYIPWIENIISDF
Put plainly: ELISA: recombinant MASP-2 (CCP1-CCP2-SP) coated directly on the plate, A450. As to the method:
as §1
B4: the binding result was “no binding (tested: about 20 nM (log10 about 1.3))”.
Same read-out and setting: in the case of B5 it was “no binding (tested: about 20 nM (log10 about 1.3))”; in that of B6, “no binding (tested: about 20 nM (log10 about 1.3))”; in that of B7, “no binding (tested: about 20 nM (log10 about 1.3))”.

In a further test the target is T1, human MASP-3 (construct not stated). Briefly: cell-based or functional assay. This is another data set of the same source.
Consider B7, for which the “Inhibition of Factor Bb Deposition on Zymosan (IC50 nM), 10% factor D-depleted human serum with pro-factor D” value was 3.5 nM.

The target in the next test is T4, human MASP-3 CCP1-CCP2-SP fragment. Put plainly: cell-based or functional assay.
For the molecule B4, the “inhibition of MASP-3-dependent fluorogenic tripeptide (BOC-V-P-R-AMC) cleavage” value was determined as 29.8 nM.

A further test shares this target. Briefly: sandwich ELISA, MASP-3 CCP1-CCP2-SP captured by αM3-259. As for the experimental part: as §1
On to B4, for which the EC50 amounted to 0.241 nM.
The same measure, in the same setting: in the case of B5 it was 0.073 nM; in that of B6, 0.057 nM; in that of B7, 0.122 nM.

For orientation: EC50 means the concentration that produces a half-maximal response.
